Measurements as given in PMC6565675, “Cryo-electron microscopy structure of an archaeal ribonuclease P holoenzyme” (Nature Communications, 2019).

How the values were obtained:
[1] = target: T1, Methanocaldococcus jannaschii RNase P protein subunit Rpp30 (Methanocaldococcus jannaschii, UniProt Q58539 1-232); experiment: cryo-EM structure; MjaRNase P holoenzyme reconstituted in vitro from RPR and the purified protein components, purified by SEC; alone (4.6 Å) and with E. coli tRNA^Tyr (4.3 Å); buffer exchanged on the grid to 40 mM Hepes, pH 7.5, 200 mM NaCl; C2 symmetry applied; conditions: both partners purified
T1 construct: Rpp30, protein subunit of RNase P of Methanocaldococcus jannaschii; full-length gene cloned; Purified as the (Pop5-Rpp30)2 heterotetramer; two copies in the dimeric holoenzyme; also called MjaRpp30; source: E. coli BL21 (DE3), co-expressed with MjaPop5 from pETDuet, purified (Ni-NTA, heating at 65 °C, ion-exchange, SEC)
T1 sequence (looked up): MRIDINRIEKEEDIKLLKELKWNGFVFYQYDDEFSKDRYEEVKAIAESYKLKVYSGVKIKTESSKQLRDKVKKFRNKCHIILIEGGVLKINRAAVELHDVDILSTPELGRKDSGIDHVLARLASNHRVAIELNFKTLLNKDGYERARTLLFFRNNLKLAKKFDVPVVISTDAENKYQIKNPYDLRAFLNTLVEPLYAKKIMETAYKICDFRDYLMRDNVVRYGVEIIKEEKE

[2] = target: T2, Methanocaldococcus jannaschii RNase P protein subunit Rpp21 (Methanocaldococcus jannaschii, UniProt Q58372 1-128); experiment: as above; conditions: both partners purified
T2 construct: Rpp21, protein subunit of RNase P of Methanocaldococcus jannaschii; also called MjaRpp21; source: E. coli, expressed as the MjaRpp29-MjaRpp21 heterodimer, purified by the same procedure as Pop5-Rpp30
T2 sequence: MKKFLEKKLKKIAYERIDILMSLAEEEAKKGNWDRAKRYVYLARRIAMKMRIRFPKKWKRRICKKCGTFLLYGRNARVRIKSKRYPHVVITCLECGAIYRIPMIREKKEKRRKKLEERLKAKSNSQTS

B1: Methanocaldococcus jannaschii RNase P protein subunit Rpp29 (natural protein)
chain: MITPHNILRHELIGLKVEIVEAKNKAMIGIKGKVVDETRNTLVIEKEDGREVVIPKDIAVFLFQLKGCKVKVDGRLLIGRPEERLKKKIKILYPY
notes: Rpp29, protein subunit of RNase P of Methanocaldococcus jannaschii; also called MjaRpp29; source: E. coli, expressed as the MjaRpp29-MjaRpp21 heterodimer, purified by the same procedure as Pop5-Rpp30
[1]
  binding result: binds
[2]
  binding result: binds
